In US20070265201A1 (published 2007):
Ends that are not written are not given here.

What was measured:
Assay in all cases: GST pull-down, 35S-labeled in vitro translated probe, autoradiography
[1] = biological target: T1, C/EBPβ bZIP domain, in vitro translated radiolabeled probe (UniProt P17676 269-345, labeled with 35S methionine)
T1 construct: range 269-345; Residues 269-345 are stated for the bZIP expression vector in pcDNA3.1; also called bZIP region of NFIL6

[2] = biological target: T2, Cytomegalovirus (CMV) Immediate Early 2 protein (IE2), in vitro translated radiolabeled probe (human Cytomegalovirus (hCMV), UniProt P19893 1-580, labeled with 35S methionine)
T2 sequence: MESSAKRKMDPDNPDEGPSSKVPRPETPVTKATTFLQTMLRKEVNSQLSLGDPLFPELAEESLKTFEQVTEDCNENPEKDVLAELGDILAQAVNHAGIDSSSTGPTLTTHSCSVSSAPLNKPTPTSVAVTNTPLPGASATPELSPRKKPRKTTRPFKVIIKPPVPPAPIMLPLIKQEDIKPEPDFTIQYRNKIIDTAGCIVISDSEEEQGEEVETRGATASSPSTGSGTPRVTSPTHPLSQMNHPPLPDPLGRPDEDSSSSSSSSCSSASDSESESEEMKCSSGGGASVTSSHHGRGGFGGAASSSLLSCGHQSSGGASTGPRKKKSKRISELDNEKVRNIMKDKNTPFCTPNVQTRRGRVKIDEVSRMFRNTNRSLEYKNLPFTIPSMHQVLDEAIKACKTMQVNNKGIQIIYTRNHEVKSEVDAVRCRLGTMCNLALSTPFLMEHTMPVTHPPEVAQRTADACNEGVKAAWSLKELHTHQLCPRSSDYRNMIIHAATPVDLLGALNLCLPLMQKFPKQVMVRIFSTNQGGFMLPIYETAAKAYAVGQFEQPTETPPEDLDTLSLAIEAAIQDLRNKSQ

[3] = biological target: T3, Spi-1 ETS domain, in vitro translated radiolabeled probe (UniProt P17947 170-253)
T3 construct: domain: ETS domain; also called PU.1 ETS domain

Measured: binding result

T1 sequence (P17676 269-345 limits assumed): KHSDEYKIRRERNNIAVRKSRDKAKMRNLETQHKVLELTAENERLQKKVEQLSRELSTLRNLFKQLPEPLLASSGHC

B1: GST fusion of IE2 291-364 fragment with an internal deletion of residues 315-328 (delA) (other)
chain: SSHHGRGGFGGAASSSLLSCGHQSRISELDNEKVRNIMKDKNTPFCTPNVQTRRGRVKID
modifications: cysteine pairing not given here; also: GST fusion, linker and position not given here
notes: also called IE2 291-364Δ315-328; not shown: glutathione-S-transferase (GST) fusion partner
no binding: all assays above
